Positions count from the first letter of the chain named. In names and notes the source's numbering stands.
Experiments:
Conditions in all cases: both partners purified
[1] = target: T1, UPF1 helicase core domain (UPF1-HD; aa 295-914), C-terminal hexahistidine (human, UniProt Q92900-2 295-914); experiment: pull-down; GST-Tax as bait on GST resin, purified UPF1 proteins as prey; extensive washes with 0.3 M NaCl (methods: binding buffer with 200 mM NaCl); SDS-PAGE, coomassie staining
T1 construct: UPF1, human, helicase core domain (HD), aa 295-914; numbers count on: the 1118 aa form; for UPF1-HD only the C-terminal hexahistidine is named; also called UPF1-HD-His; HisUPF1-HD; source: E. coli BL21 DE3, purified (Ni-NTA); also in E. coli lysate (co-lysis with Tax-expressing bacteria); not shown: His6, C-terminal, kept
T1 sequence (looked up): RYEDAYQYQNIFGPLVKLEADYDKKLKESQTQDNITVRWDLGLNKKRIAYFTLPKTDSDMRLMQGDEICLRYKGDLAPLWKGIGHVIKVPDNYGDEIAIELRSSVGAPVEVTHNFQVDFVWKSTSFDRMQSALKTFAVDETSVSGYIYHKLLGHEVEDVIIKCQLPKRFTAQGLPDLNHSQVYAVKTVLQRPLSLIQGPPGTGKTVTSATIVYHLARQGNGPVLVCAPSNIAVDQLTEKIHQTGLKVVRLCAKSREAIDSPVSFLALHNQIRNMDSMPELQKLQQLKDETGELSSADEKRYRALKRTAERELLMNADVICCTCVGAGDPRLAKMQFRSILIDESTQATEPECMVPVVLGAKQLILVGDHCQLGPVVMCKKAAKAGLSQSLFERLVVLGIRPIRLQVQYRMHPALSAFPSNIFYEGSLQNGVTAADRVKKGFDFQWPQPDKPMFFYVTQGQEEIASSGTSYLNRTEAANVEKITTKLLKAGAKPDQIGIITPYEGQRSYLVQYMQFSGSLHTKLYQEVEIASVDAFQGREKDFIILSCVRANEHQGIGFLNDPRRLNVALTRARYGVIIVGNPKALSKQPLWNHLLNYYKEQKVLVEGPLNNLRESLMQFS

[2] = target: T2, UPF1-HD-SQ (HD and SQ domains of UPF1; aa 295-1118) (human, UniProt Q92900-2 295-1118); experiment: as above
T2 construct: UPF1, human, helicase and SQ domains, aa 295-1118; numbers count on: the 1118 aa form; Tags 'and/or' as printed; source: E. coli BL21 DE3, purified (nickel and calmodulin resin)
T2 sequence (looked up): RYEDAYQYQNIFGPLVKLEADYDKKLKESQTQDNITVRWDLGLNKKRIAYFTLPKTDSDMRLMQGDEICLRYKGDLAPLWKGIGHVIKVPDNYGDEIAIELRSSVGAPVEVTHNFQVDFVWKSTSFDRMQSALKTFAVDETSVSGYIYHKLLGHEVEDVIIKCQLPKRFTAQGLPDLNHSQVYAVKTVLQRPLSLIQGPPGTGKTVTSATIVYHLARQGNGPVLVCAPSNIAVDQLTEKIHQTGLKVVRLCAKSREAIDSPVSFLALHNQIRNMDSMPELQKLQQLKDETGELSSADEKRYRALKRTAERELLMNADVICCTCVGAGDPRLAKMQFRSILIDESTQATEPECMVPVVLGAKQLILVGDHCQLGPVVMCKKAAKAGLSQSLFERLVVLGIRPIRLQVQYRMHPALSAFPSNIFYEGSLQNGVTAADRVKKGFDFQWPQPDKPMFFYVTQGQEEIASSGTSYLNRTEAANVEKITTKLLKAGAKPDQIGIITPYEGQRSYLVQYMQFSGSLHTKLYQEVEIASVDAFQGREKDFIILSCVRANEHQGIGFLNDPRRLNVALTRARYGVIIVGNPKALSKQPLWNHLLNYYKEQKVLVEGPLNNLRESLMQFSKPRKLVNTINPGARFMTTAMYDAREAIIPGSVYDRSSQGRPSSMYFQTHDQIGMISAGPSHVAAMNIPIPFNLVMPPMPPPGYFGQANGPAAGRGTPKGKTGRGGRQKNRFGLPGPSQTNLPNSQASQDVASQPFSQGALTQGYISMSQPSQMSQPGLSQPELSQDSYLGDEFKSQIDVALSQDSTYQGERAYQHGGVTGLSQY

[3] = target: T3, UPF1 full-length (UPF1-FL; aa 1-1118) (human, UniProt Q92900-2 1-1118); experiment: as above
T3 construct: Up-Frameshift Suppressor 1 Homolog (UPF1), human, aa 1-1118; printed length 1118 aa; source: E. coli BL21 DE3, purified (nickel and calmodulin resin)
T3 sequence (looked up): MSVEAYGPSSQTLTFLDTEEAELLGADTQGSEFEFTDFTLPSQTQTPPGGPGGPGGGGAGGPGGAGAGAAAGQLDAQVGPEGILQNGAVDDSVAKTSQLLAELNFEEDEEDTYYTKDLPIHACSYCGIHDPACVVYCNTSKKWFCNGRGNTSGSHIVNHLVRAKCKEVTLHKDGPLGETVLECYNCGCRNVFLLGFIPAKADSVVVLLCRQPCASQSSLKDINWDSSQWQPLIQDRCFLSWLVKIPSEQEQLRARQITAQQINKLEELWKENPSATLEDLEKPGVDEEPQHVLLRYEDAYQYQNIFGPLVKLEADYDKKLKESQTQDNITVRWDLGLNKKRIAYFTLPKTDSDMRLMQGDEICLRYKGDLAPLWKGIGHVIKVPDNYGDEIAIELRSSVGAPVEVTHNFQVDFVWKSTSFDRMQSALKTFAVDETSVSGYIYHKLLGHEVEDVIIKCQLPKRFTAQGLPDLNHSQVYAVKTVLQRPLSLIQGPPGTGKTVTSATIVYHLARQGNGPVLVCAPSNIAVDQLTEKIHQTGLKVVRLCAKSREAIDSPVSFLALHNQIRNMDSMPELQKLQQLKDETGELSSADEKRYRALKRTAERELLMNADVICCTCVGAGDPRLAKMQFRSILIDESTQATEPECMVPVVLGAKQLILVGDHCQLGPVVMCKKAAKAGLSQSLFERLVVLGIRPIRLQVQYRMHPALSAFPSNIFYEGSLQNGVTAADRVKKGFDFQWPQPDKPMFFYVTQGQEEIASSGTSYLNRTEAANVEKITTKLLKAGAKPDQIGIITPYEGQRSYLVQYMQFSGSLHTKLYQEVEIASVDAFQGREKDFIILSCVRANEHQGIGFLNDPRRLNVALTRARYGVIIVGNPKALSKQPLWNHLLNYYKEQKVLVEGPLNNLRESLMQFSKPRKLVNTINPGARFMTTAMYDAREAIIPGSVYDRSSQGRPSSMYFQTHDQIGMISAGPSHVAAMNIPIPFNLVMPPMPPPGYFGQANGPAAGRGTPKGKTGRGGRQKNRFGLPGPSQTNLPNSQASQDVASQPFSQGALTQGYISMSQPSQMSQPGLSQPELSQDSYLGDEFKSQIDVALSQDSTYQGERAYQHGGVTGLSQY

[4] = target: T4, UPF1-CH-HD (CH and HD domains of UPF1; aa 115-914) (human, UniProt Q92900-2 115-914); experiment: as above
T4 construct: UPF1, human, CH and helicase domains, aa 115-914; numbers count on: the 1118 aa form; Tags 'and/or' as printed; source: E. coli BL21 DE3, purified (nickel and calmodulin resin)
T4 sequence (looked up): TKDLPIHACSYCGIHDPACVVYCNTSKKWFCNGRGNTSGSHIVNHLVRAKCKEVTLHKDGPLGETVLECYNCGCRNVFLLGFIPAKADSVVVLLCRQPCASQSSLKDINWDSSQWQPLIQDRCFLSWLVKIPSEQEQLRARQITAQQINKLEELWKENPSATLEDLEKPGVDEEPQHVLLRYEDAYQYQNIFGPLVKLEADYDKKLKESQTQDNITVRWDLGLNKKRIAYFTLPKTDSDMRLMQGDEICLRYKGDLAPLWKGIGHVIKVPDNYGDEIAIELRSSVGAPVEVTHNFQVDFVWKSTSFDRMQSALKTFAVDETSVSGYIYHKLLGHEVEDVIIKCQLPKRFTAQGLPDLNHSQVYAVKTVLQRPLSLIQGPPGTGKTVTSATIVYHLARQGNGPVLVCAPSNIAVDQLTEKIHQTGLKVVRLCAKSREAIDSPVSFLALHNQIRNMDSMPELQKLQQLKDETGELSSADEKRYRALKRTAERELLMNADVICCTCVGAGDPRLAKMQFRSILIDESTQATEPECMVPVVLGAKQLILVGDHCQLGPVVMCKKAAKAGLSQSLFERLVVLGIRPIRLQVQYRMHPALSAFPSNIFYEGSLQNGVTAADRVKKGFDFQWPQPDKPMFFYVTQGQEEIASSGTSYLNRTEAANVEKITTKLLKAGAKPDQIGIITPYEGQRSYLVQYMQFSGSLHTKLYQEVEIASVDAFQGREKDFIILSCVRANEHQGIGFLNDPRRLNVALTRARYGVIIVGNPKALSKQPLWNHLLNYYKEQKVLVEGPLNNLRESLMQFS

[5] = target: T5, GST-Tax_(CACA) (HTLV-1 Tax with C23 and C29 changed to alanine, N-terminal GST fusion) (HTLV-1, UniProt P03409 1-353, C23A | C29A); experiment: BLI; BLItz; GST-Tax covalently bound to an AR2G sensor; UPF1 His-HD proteins in running buffer (300 mM NaCl, 20 mM phosphate, 0.02% Tween 20, 0.1% albumin); 250 s association, 60 s dissociation
T5 construct: Tax protein of HTLV-1, 353 amino acids, double mutant of the zinc finger region; plasmid pGEX2T-Tax_(CACA) made from pGEX2T-TaxWT; also called GST-tagged Tax_(CACA); source: E. coli BL21-DE3, purified (glutathione magnetic beads); also in E. coli lysate (co-lysis with HisUPF1-HD bacteria); not shown: GST, N-terminal, kept

B1: GST-Tax (HTLV-1 Tax, wild type, N-terminal glutathione S-transferase fusion) (natural protein)
chain: not shown
notes: Tax protein of human T-cell lymphotropic virus type I (HTLV-1); also called TaxWT; HTLV-1 GST-Tax; source: E. coli BL21-DE3, purified (glutathione magnetic beads); also in E. coli lysate (co-lysis with HisUPF1-HD bacteria); not shown: GST, N-terminal, kept
- binding result [1]: binds
- binding result [2]: binds
- binding result [3]: binds
- binding result [4]: binds

B2: UPF1-HD_(DE636AA), histidine-tagged (domain or fragment)
chain: T1 sequence (looked up) with D342A, E343A
notes: numbers count on: the 1118 aa form; also called UPF1-HD_(DE633AA); UPF1-HD_(DEAA); source: E. coli BL21 DE3, purified (Ni-NTA)
- fold change of binding against WT [5]: ~1.8 times

B3: UPF1-HD_(R843S), histidine-tagged (domain or fragment)
chain: T1 sequence (looked up) with R549S
notes: UPF1, human, helicase core domain aa 295-914 (as UPF1-HD) with R843S; numbers count on: the 1118 aa form; source: E. coli, purified (as the other His-tagged UPF1 proteins)
- fold loss of affinity against WT [5]: 4 times
